Test results published in patent US20220340649A1 (SENELIX, published 2022).
Residue numbers refer to the chain shown, from its start.

Key:
[1] = biological target: T1, human YKL-40 (chitinase-3-like protein 1) (human, UniProt P36222 22-383); assay: Octet BLI, antigen immobilized on AR2G sensor, antibody 0-1 µM; hYKL-40 on the sensor
T1 construct: Antigen protein immobilized in ELISA and on the Octet AR2G sensor; also called hYKL-40; human YKL-40 antigen
Experimental: (§1) To reconfirm the EC₅₀ value measured by ELISA, the affinity for 4E3-F2 (M3) and 3A10-F1 (H1) was measured using an Octet instrument. Cross-binding was investigated for the two antibodies using hYKL-40 and mYKL-40. Each antigen protein was immobilized using the AR2G (Amine Reactive 2nd Generation) sensor, and the direct immobilization method of binding each antibody with different concentrations (0-1 μM) was employed.

mouse YKL-40 [2] = biological target: T2, mouse YKL-40 (mouse, UniProt Q61362 30-389); assay: Octet BLI, antigen immobilized on AR2G sensor
T2 construct: Antigen protein immobilized in ELISA and on the Octet AR2G sensor; also called mYKL-40; mouse YKL-40 antigen
Experimental: as §1

[3] = biological target: T1, human YKL-40 (chitinase-3-like protein …); assay: ELISA, purified IgG on antigen
[4] = biological target: T1, human YKL-40 (chitinase-3-like protein …); assay: ELISA, IgG titrated on hYKL-40, A450nm normalized
[5] = biological target: T1, human YKL-40 (chitinase-3-like protein …); assay: ELISA, Fab protein titrated on hYKL-40 antigen, A450nm normalized
mouse YKL-40 [6] = biological target: T2, mouse YKL-40; assay: ELISA, Fab protein titrated on mYKL-40 antigen, A450nm normalized
mouse YKL-40 [7] = biological target: T2, mouse YKL-40; assay: Octet BLI, antigen immobilized on AR2G sensor, antibody 0-1 µM; mYKL-40 on the sensor
Experimental: as §1

mouse YKL-40 [8] = biological target: T2, mouse YKL-40; assay: ELISA, purified IgG on antigen

T1 sequence (P36222 22-383 limits assumed): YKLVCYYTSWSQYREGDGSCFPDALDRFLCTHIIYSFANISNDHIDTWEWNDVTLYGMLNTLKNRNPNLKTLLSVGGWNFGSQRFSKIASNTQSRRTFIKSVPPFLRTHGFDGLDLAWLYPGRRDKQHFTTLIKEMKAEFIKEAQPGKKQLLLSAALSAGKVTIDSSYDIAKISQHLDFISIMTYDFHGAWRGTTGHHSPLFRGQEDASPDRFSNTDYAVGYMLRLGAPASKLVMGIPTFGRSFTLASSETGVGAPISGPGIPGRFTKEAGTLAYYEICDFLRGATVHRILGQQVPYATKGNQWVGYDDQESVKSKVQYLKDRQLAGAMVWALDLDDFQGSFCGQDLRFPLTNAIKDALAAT
T2 sequence (Q61362 30-389): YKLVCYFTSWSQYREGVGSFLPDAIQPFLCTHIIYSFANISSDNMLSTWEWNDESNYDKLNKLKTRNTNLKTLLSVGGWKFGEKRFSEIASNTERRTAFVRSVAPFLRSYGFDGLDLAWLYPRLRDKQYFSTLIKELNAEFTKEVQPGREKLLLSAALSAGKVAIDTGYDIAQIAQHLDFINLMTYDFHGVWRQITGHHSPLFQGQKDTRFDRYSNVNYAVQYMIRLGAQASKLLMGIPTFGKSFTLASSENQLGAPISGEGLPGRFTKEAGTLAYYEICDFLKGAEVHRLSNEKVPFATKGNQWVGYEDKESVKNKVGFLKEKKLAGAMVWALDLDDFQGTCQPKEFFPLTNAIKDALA

B1: 3A10-F1 (H1) human IgG antibody (antibody, V domains shown)
VH: EVQLVESGGGLVQPGGSLRLSCAASGFTFSNYAMSWVRQAPGKGLEWVSGISGSGGTTYYADSVKGRFTISRDNSKNTLYLQMNSLRAEDTAVYYCAGVGTFDVWGQGTLVTVSS
VL: DIQMTQSPSSLSASVGDRVTITCRASQTISSWLNWYQQKPGKAPKLLIYAASRLQSGVPSRFSGSGSGTDFTLTISSLQPEDFATYYCQQSYSTPLTFGQGTKVEIK
notes: The phage clone was converted to human IgG and produced in Expi293 cells; also called human YKL-40 antibody 3A10-F1 (H1)
Kd [1]: 0.05 nM | binding result (mouse YKL-40 [2]): no binding (tested: 0-1 µM) | EC50 [3]: 0.582 nM | EC50 [4]: 0.5 nM

B2: 3A10-F1 (H1) Fab (Fab, V domains shown)
VH: B1 VH
VL: B1 VL
notes: Fab from the Fab-I phage library; also called Fab protein of 3A10-F1 (H1)
EC50 [5]: 0.74 nM

B3: 4E3-F2 (M3) Fab (Fab, V domains shown)
VH: QVQLVQSGAEVKKPGSSVKVSCKASGGTFSSYDIHWVRQAPGQGLEWMGIISPYLGITIYAQKFQGRVTITADESTSTAYMELSSLRSEDTAVYYCARRYFYYQSEAFDYWGQGTLVTVSS
VL: B1 VL with T28S, S31N, W32Y, R53T, T94F
notes: Fab from the Fab-II phage library; also called Fab protein of 4E3-F2 (M3)
EC50 [5]: 23.6 nM | EC50 (mouse YKL-40 [6]): 4.3 nM

B4: 4E3-F2 (M3) human IgG antibody (antibody, V domains shown)
VH: B3 VH
VL: B1 VL with T28S, S31N, W32Y, R53T, T94F
notes: The phage clone was converted to human IgG and produced in Expi293 cells; also called mouse YKL-40 antibody 4E3-F2 (M3)
Kd [1]: 57 nM | Kd (mouse YKL-40 [7]): 67 nM | EC50 (mouse YKL-40 [8]): 0.067 nM
